Results as given in US20060052582A1 (published 2006).

B1: FLAG Nercc (full-length wild type Nercc1 kinase with FLAG epitope tag) (enzyme)
chain: MDYKDDDDKMSVLGEYERHCDSINSDFGSESGGCGDSSPGPSASQGPRAGGGAAEQEELHYIPIRVLGRGAFGEATLYRRTEDDSLVVWKEVDLTRLSEKERRDALNEIVILALLQHDNIIAYYNHFMDNTTLLIELEYCNGGNLYDKILRQKDKLFEEEMVVWYLFQIVSAVSCIHKAGILHRDIKTLNIFLTKANLIKLGDYGLAKKLNSEYSMAETLVGTPYYMSPELCQGVKYNFKSDIWAVGCVIFELLTLKRTFDATNPLNLCVKIVQGIRAMEVDSSQYSLELIQMVHSCLDQDPEQRPTADELLDRPLLRKRRREMEEKVTLLNAPTKRPRSSTVTEAPIAVVTSRTSEVYIWGGGKSTPQKLDVIKSGCSARQVCAGNTHFAVVTVEKELYTWVNMQGGTKLHGQLGHGDKASYRQPKHVEKLQGKAIHQVSCGDDFTVCVTDEGQLYAFGSDYYGCMGVDKVAGPEVLEPMQLNFFLSNPVEQVSCGDNHVVVLTRNKEVYSWGCGEYGRLGLDSEEDYYTPQKVDVPKALIIVAVQCGCDGTFLLTQSGKVLACGLNEFNKLGLNQCMSGIINHEAYHEVPYTTSFTLAKQLSFYKIRTIAPGKTHTAAIDERGRLLTFGCNKCGQLGVGNYKKRLGINLLGGPLGGKQVIRVSCGDEFTIAATDDNHIFAWGNGGNGRLAMTPTERPHGSDICTSWPRPIFGSLHHVPDLSCRGWHTILIVEKVLNSKTIRSNSSGLSIGTVFQSSSPGGGGGGGGGEEEDSQQESETPDPSGGFRGTMEADRGMEGLISPTEAMGNSNGASSSCPGWLRKELENAEFIPMPDSPSPLSAAFSESEKDTLPYEELQGLKVASEAPLEHKPQVEASSPRLNPAVTCAGKGTPLTPPACACSSLQVEVERLQGLVLKCLAEQQKLQQENLQIFTQLQKLNKKLEGGQQVGMHSKGTQTAKEEMEMDPKPDLDSDSGCLLGTDSCRPSL
notes: Expressed in HEK293 cells; also called FLAG Nercc1; FLAG Nercc full length (FL)
B2: FLAG Nercc (338-739) (other)
chain: MDYKDDDDKPIAVVTSRTSEVYIWGGGKSTPQKLDVIKSGCSARQVCAGNTHFAVVTVEKELYTWVNMQGGTKLHGQLGHGDKASYRQPKHVEKLQGKAIHQVSCGDDFTVCVTDEGQLYAFGSDYYGCMGVDKVAGPEVLEPMQLNFFLSNPVEQVSCGDNHVVVLTRNKEVYSWGCGEYGRLGLDSEEDYYTPQKVDVPKALIIVAVQCGCDGTFLLTQSGKVLACGLNEFNKLGLNQCMSGIINHEAYHEVPYTTSFTLAKQLSFYKIRTIAPGKTHTAAIDERGRLLTFGCNKCGQLGVGNYKKRLGINLLGGPLGGKQVIRVSCGDEFTIAATDDNHIFAWGNGGNGRLAMTPTERPHGSDICTSWPRPIFGSLHHVPDLSCRGWHTILIVEKVLNSKTIRSNSSG
notes: also called Nercc RCC1 domain; Nercc RCC1-like domain
B3: FLAG Nercc (1-891) (enzyme)
chain: MDYKDDDDKMSVLGEYERHCDSINSDFGSESGGCGDSSPGPSASQGPRAGGGAAEQEELHYIPIRVLGRGAFGEATLYRRTEDDSLVVWKEVDLTRLSEKERRDALNEIVILALLQHDNIIAYYNHFMDNTTLLIELEYCNGGNLYDKILRQKDKLFEEEMVVWYLFQIVSAVSCIHKAGILHRDIKTLNIFLTKANLIKLGDYGLAKKLNSEYSMAETLVGTPYYMSPELCQGVKYNFKSDIWAVGCVIFELLTLKRTFDATNPLNLCVKIVQGIRAMEVDSSQYSLELIQMVHSCLDQDPEQRPTADELLDRPLLRKRRREMEEKVTLLNAPTKRPRSSTVTEAPIAVVTSRTSEVYIWGGGKSTPQKLDVIKSGCSARQVCAGNTHFAVVTVEKELYTWVNMQGGTKLHGQLGHGDKASYRQPKHVEKLQGKAIHQVSCGDDFTVCVTDEGQLYAFGSDYYGCMGVDKVAGPEVLEPMQLNFFLSNPVEQVSCGDNHVVVLTRNKEVYSWGCGEYGRLGLDSEEDYYTPQKVDVPKALIIVAVQCGCDGTFLLTQSGKVLACGLNEFNKLGLNQCMSGIINHEAYHEVPYTTSFTLAKQLSFYKIRTIAPGKTHTAAIDERGRLLTFGCNKCGQLGVGNYKKRLGINLLGGPLGGKQVIRVSCGDEFTIAATDDNHIFAWGNGGNGRLAMTPTERPHGSDICTSWPRPIFGSLHHVPDLSCRGWHTILIVEKVLNSKTIRSNSSGLSIGTVFQSSSPGGGGGGGGGEEEDSQQESETPDPSGGFRGTMEADRGMEGLISPTEAMGNSNGASSSCPGWLRKELENAEFIPMPDSPSPLSAAFSESEKDTLPYEELQGLKVASEAPLEHKPQVEASSPRLNPAVTCAGKGTPLTPPACA
B4: Nercc (338-739) fused to the Nercc NLS (other)
chain: PIAVVTSRTSEVYIWGGGKSTPQKLDVIKSGCSARQVCAGNTHFAVVTVEKELYTWVNMQGGTKLHGQLGHGDKASYRQPKHVEKLQGKAIHQVSCGDDFTVCVTDEGQLYAFGSDYYGCMGVDKVAGPEVLEPMQLNFFLSNPVEQVSCGDNHVVVLTRNKEVYSWGCGEYGRLGLDSEEDYYTPQKVDVPKALIIVAVQCGCDGTFLLTQSGKVLACGLNEFNKLGLNQCMSGIINHEAYHEVPYTTSFTLAKQLSFYKIRTIAPGKTHTAAIDERGRLLTFGCNKCGQLGVGNYKKRLGINLLGGPLGGKQVIRVSCGDEFTIAATDDNHIFAWGNGGNGRLAMTPTERPHGSDICTSWPRPIFGSLHHVPDLSCRGWHTILIVEKVLNSKTIRSNSSG
notes: also called Nercc RCC1 domain directed to the nucleus; not shown: Nercc NLS
B5: NLS Nercc FL (nuclear form of full length Nercc with an NLS peptide at the N-terminus) (enzyme)
chain: MSVLGEYERHCDSINSDFGSESGGCGDSSPGPSASQGPRAGGGAAEQEELHYIPIRVLGRGAFGEATLYRRTEDDSLVVWKEVDLTRLSEKERRDALNEIVILALLQHDNIIAYYNHFMDNTTLLIELEYCNGGNLYDKILRQKDKLFEEEMVVWYLFQIVSAVSCIHKAGILHRDIKTLNIFLTKANLIKLGDYGLAKKLNSEYSMAETLVGTPYYMSPELCQGVKYNFKSDIWAVGCVIFELLTLKRTFDATNPLNLCVKIVQGIRAMEVDSSQYSLELIQMVHSCLDQDPEQRPTADELLDRPLLRKRRREMEEKVTLLNAPTKRPRSSTVTEAPIAVVTSRTSEVYIWGGGKSTPQKLDVIKSGCSARQVCAGNTHFAVVTVEKELYTWVNMQGGTKLHGQLGHGDKASYRQPKHVEKLQGKAIHQVSCGDDFTVCVTDEGQLYAFGSDYYGCMGVDKVAGPEVLEPMQLNFFLSNPVEQVSCGDNHVVVLTRNKEVYSWGCGEYGRLGLDSEEDYYTPQKVDVPKALIIVAVQCGCDGTFLLTQSGKVLACGLNEFNKLGLNQCMSGIINHEAYHEVPYTTSFTLAKQLSFYKIRTIAPGKTHTAAIDERGRLLTFGCNKCGQLGVGNYKKRLGINLLGGPLGGKQVIRVSCGDEFTIAATDDNHIFAWGNGGNGRLAMTPTERPHGSDICTSWPRPIFGSLHHVPDLSCRGWHTILIVEKVLNSKTIRSNSSGLSIGTVFQSSSPGGGGGGGGGEEEDSQQESETPDPSGGFRGTMEADRGMEGLISPTEAMGNSNGASSSCPGWLRKELENAEFIPMPDSPSPLSAAFSESEKDTLPYEELQGLKVASEAPLEHKPQVEASSPRLNPAVTCAGKGTPLTPPACACSSLQVEVERLQGLVLKCLAEQQKLQQENLQIFTQLQKLNKKLEGGQQVGMHSKGTQTAKEEMEMDPKPDLDSDSGCLLGTDSCRPSL
notes: Probably FLAG-tagged like the other constructs; not shown: NLS peptide (a copy of the Nercc NLS)

How the values were obtained:
[1] = biological target: T1, HA Nercc (full-length Nercc1 with HA epitope tag) (human, UniProt Q8TD19 1-979); test: anti-HA immunoprecipitation from co-transfected HEK293 cells, anti-FLAG blot
T1 construct: also called HA Nercc FL
T1 sequence: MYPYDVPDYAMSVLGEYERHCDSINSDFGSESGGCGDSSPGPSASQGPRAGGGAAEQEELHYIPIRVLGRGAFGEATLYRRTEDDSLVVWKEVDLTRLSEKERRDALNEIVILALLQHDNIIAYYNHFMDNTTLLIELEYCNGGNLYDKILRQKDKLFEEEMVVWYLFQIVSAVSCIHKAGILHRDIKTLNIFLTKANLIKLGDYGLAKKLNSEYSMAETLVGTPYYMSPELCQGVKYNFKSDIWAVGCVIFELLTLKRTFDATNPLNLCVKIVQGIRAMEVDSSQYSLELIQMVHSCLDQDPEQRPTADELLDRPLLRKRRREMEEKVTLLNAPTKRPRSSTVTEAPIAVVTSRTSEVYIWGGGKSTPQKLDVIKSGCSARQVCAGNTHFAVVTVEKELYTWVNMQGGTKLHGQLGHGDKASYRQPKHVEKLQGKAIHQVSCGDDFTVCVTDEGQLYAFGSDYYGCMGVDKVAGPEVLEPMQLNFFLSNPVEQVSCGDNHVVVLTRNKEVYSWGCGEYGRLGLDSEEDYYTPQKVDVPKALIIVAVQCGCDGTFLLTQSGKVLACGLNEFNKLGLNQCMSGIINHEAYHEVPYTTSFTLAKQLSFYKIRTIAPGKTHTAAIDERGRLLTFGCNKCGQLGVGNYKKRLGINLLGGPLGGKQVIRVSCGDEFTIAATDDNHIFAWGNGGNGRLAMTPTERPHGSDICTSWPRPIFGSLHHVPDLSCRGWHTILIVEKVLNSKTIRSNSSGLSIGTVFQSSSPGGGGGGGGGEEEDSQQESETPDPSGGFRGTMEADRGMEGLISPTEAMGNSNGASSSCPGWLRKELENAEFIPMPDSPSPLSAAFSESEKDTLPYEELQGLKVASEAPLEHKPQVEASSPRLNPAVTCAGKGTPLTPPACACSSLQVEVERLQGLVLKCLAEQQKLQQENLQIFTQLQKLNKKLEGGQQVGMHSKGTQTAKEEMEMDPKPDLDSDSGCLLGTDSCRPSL

Ran T24N = Ran T24N (UniProt P62826 1-216); test: co-expression and co-immunoprecipitation
From the text: (§1) To address more directly the relative binding in vivo of Nercc to Ran-GDP compared to Ran-GTP, the cytoplasmic wild type Nercc and a nuclear form of full length Nercc (NLS-Nercc) were each co-expressed with wild type Ran or Ran mutants that bind GDP (T24N) or GTP (G19V) exclusively; either Ran or Nercc was immunoprecipitated and probed for the association with the other polypeptide. The full-length wild type Nercc bound co-expressed wild type Ran and Ran T24N to a greater extent than RanG19V.

Ran G19V = Ran G19V (UniProt P62826 1-216); test: co-expression and co-immunoprecipitation
From the text: as §1

Binder | binding result [1] | binding result (Ran T24N) | binding result (Ran G19V)
B1 | binds |  | 
B2 |  | no binding | no binding
B3 | no binding |  | 
B4 |  | no binding | no binding
B5 |  |  | no binding
